Laboratory results from publication PMC11652679.

Biological target: Mayaro virus E1-E2 heterodimer on the VLP (Mayaro virus) (UniProt Q8QZ72)
Test: cryo-EM structure; single-particle averaging with icosahedral (I1) reconstruction of purified MAYV VLPs, ~1-2 mg/mL in STE buffer, vitrified at 4 °C; final resolution 4.5 Å

For “Mayaro virus E1-E2 heterodimer on the VLP (from UniProt Q8QZ72 807-1242) (complex)”, the stoichiometry N was 3.
